Experimental data taken from publication PMC6542180.

Target: endogenous SHP-1 (UniProt P29351)
Assay: GST pull-down of endogenous macrophage SHP-1
Conditions: reference: wild type

Substance: EHEC (EDL933) Tir (from UniProt Q7DB77) Y490F
- binding against the reference (sites Y490): weaker

Substance: EHEC (EDL933) Tir (from UniProt Q7DB77) Y519F
- binding against the reference (sites Y519): weaker
